Ends that are not written are not given here. Bounds are passed on as bounds.

The target of experiment [1] is T1, human IL-2Rβ (CD122 protein, Fc Tag) (27-239) (human, UniProt P14784 27-239).
T1 construct: range 27-239; Bought protein; also called IL-2Rβ subunit; IL-2Rβ-Fc; not shown: Fc Tag of the bought protein (ACRObiosystems ILB-H5253)
T1 sequence (looked up): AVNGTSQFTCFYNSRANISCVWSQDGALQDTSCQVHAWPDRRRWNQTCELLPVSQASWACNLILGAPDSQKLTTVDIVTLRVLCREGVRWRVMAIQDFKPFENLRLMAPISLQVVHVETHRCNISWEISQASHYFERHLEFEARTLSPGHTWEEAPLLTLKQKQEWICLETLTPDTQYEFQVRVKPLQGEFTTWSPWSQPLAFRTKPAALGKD
The experiment can be described thus: IC50, method not told in the paragraph.

Experiment [2] concerns the target T2, human IL-2Rγc (CD132 protein, Fc Tag) (23-254) (human, UniProt P31785 23-254).
T2 construct: range 23-254; Bought protein; also called IL-2Rγc subunit; γc subunit; not shown: Fc Tag of the bought protein (ACRObiosystems ILG-H5256)
T2 sequence (looked up): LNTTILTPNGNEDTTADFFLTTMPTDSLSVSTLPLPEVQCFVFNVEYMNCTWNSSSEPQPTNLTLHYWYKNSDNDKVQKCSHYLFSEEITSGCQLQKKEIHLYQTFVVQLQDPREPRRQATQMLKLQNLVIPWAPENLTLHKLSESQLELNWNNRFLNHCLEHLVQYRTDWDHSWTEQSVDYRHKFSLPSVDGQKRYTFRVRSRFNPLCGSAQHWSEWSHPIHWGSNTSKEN
Kind of experiment: IC50, method not told in the paragraph.

Consider RSCYYKRPRLWCSE [IL-2Rβ ligand SEQ ID NO: 1044], for which the IC50 (commonly the point on the concentration scale where inhibition reaches its midpoint) in experiment [1] is less than 10 µM.
Molecule MCWLEWGEWVGSCL [IL-2Rγc ligand SEQ ID NO: 236] returned an IC50 in experiment [2] of less than 10 µM.
As to QICDVGQWWPDCQV [IL-2Rβ ligand SEQ ID NO: 170], the concentration for half-maximal inhibition (IC50) in experiment [1] was less than 10 µM.
The molecule KVCEMWGGVLLCWN [IL-2Rγc ligand SEQ ID NO: 198] registered an IC50 in experiment [2] of less than 10 µM.
RWGDVGDLLMPL [IL-2Rβ ligand SEQ ID NO: 1043] gave an IC50 in experiment [1] of less than 10 µM.
As for NMCLVGDYWPSCQI [IL-2Rβ ligand SEQ ID NO: 169], the IC50 in experiment [1] is less than 10 µM.
SLLKCYNASTCASVF [IL-2Rγc ligand SEQ ID NO: 948] came in with a half-maximal inhibitory concentration (IC50) in experiment [2] of less than 10 µM.
In the case of CCYQAMVGDLCDFC [IL-2Rβ ligand SEQ ID NO: 83], in experiment [1], the IC50 was less than 10 µM.
With CGMAIGDLCMWT [IL-2Rβ ligand SEQ ID NO: 1084], the IC50 in experiment [1] was less than 10 µM.
For the molecule DLSDLSTFWLSQ (not fully specified, Family 3; also called 248 or 1051) [IL-2Rγc ligand SEQ ID NO: 1051], the IC50 in experiment [2] is less than 10 µM.
DCSMWEGVELCW (also called Peptide F) [IL-2Rγc ligand SEQ ID NO: 224] displayed an IC50 in experiment [2] of less than 10 µM.
RTCTEWENVVLCWV (not fully specified; cysteine pairing not given here) [IL-2Rγc ligand SEQ ID NO: 202] gave an IC50 in experiment [2] of less than 10 µM.
In experiment [2], CPSMLQGPERTWVC [IL-2Rγc ligand SEQ ID NO: 266] registered a 50% inhibitory concentration (IC50) of less than 10 µM.
